Variants at the floor of the assay were thinned out.
B1: TPR 5TU (parent)
chain: GGAUCUUCUCGAUCUAACAAAAAAGACAAAUCUGCCACAAAGCUUGAGAGCAUCUUCGGAUGCAGAGGCGGCAGCCUUCGGUGGCGCGAUAGCGCCAACGUUCUCAACUAUGACACGCAAAACGCGUGCUCCGUUGAAUGGAGUUUAUCAUG

Variants of: B1
Assay: polymerase ribozyme fitness, log enrichment relative to wild type (log ratio); higher = more active; in vitro selection for triplet polymerase activity
Method in brief: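 A heterodimeric triplet polymerase ribozyme had each of its subunits mutagenized by PCR into a library, which was transcribed. One round of in vitro selection, done in triplicate, annealed each library with a biotinylated primer, its partner subunit and triplets, then incubated it frozen at −7 °C before gel excision of extended constructs, streptavidin-bead capture and RT-PCR. Fitness is the logarithm of genotype enrichment relative to wild-type enrichment, based on Illumina sequencing of inputs and outputs and inverse-variance-weighted replicate averages. A base-2 logarithm is used, and genotypes were kept only with ≥10 input reads and ≥1 read per output.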

Variant	polymerase ribozyme fitness (log ratio)
U82A C93G	-3.41
A3U C114U C118G A137C G141C	≤ -4.2
G50A G83C C93G A97C C132G A137G G140U	≤ -4.2
G62A G117A U134C A150G	≤ -4.2
A73G U134G	-2.2
U56A C93A A98U A107G C129U	≤ -4.2
C5G U7G A12C A22U U90C U144A	≤ -4.2
C38U C87U A115U C125U	-3.34
A73G C125G	-0.161
A37G G84A U101G A120G	-2.6
C43A G58C G81C C95U C96A A122U G126C G143C	≤ -4.2
C51U A64C C79A C85U A142G	≤ -4.2
G11A C93G	≤ -4.2
A16U U56A C96A	-3.23
C51U C93G U130C U145A	-3.53
C57A C87U C103G	-2.01
G65C G71U	≤ -4.2
U45G C57U G70C C76A A91G C93A	≤ -4.2
G34A C69A A106G A147C	-3.75
G25C U56A U104C A106U A113G U139G U145A	≤ -4.2
C14U C32G U33G A47U U53A G74A C95G A106G U135A	≤ -4.2

Variant	polymerase ribozyme fitness (log ratio)
C118G U144A	-0.0459
G68C C85G G136C	≤ -4.2
A12C U33A G48C U127G G140C	≤ -4.2
G11C A40G G84A A97C G126A	≤ -4.2
C43U C57U	-3.79
C27G G67C G141A A147U G152A	≤ -4.2
C5U A41U G68A G94A C99G U102G A115G C125G	≤ -4.2
U9A A41U G74A A89G C132U	≤ -4.2
A19G A91G C95U C125U	-4.01
C69U C118U	-1.4
A89U U109G	-0.917
C75U G84U U148A	≤ -4.2
C75U A137C	-3.47
G50U G81C U134A	-2.19
A22C A28U A121U	≤ -4.2
U13G A17U A21G A22G G50C G59A G70C C72U C125G	≤ -4.2
U33G C95A	-3
A40G A41C A52G G71U A107G U111G U139C U146G C149A U151G	≤ -4.2
A30U U61A G70C C96A U111G G140A	≤ -4.2
U15C C36A A60U C85G C116U	≤ -4.2
U111A	-3.05

Variant	polymerase ribozyme fitness (log ratio)
G48C C57G G67U C85A C93A C96U G140C	≤ -4.2
C27U A66G G88A G136A	≤ -4.2
C35A G65U G83A G140U	≤ -4.2
C14A C125A	-1.75
U61A G84A	-1.38
A24G G80C G83C A115U U134A	≤ -4.2
C38U U55G G84C A98U	-1
C87A G141U	-3.64
A16U U56G G84A U102A G141U	-3.81
U15G	-0.334
A41C A89U C123G	-1.41
C57A A73G C125A	-0.303
A21G U33G A37U C85U C95U G141C	≤ -4.2
A39U G81A C99U U104C G117A	-3.48
C8A C10G C18U A21U C54A C87U A120G	≤ -4.2
A29U U33C A52C G86A	≤ -4.2
A3U C8U C27A A28C C51A A52C C54A C93U C103G C108G A115C C118A U135A A142U	≤ -4.2
C51U C85U G140C	≤ -4.2
G11C A23G A91G C95U A121G	-3.82
C38U C95U	-0.731
C10G C36U G70C C79A C95G A115U	≤ -4.2

Variant	polymerase ribozyme fitness (log ratio)
A91G G112C	-3.76
G84U G94U	-2.37
A12C C27A C36U C72G C118A	≤ -4.2
G83A A115G A150G	-2.88
G65A G67C G92A	≤ -4.2
G48C C96A U111A A138C	≤ -4.2
A3U G48A A89G C95A U102G	≤ -4.2
G84U C87A C116U	≤ -4.2
A30C C79A G88A A107G C116G A137G U144C	≤ -4.2
G67C G84A U139A G140U	≤ -4.2
C57A A60C C85A	-3.08
C85U U135G G141A	-3.54
G59A U78A G92U C96A C114U A121U	≤ -4.2
A23G C54U C93U G128C	≤ -4.2
C79G C125U A142C U148C U151G	≤ -4.2
A52C C99U	-1.81
G80U C103G G152A	≤ -4.2
G50C A64U G100U U111C G136C	≤ -4.2
A73G C79U C96U A142U	≤ -4.2
U56A G84A	-1.06

Reference: the RNAGym collection of RNA variant scans (doi:10.1073/pnas.2313332121)
